# Experimental data: paper PMC3319458 (2012)
# B1: Frataxin 82-210 (protein)
# chain: GTLGHPGSLDETTYERLAEETLDSLAEFFEDLADKPYTFEDYDVSFGSGVLTVKLGGDLGTYVINKQTPNKQIWLSSPSSGPKRYDWTGKNWVYSHDGVSLHELLAAELTKALKTKLDLSSLAYSGKDA
# Biological target: Nfs1/Isd11/Isu2 (SDU) complex (Homo sapiens, UniProt Q9Y697)
# Assay: cysteine desulfurase activity titration
binder,measurement,value
B1,Kd,220 nM
